Earlier results on 3 substances are cited in publication PMC10317158.

Data set [1] addresses RNA polymerase II CTD pSer2/5 peptide CTD (Saccharomyces cerevisiae) (UniProt P04050).
The target in data set [2] is Sen1 NIM2 (Saccharomyces cerevisiae) (UniProt Q00416).
Data set [3] addresses Mpp6 NIM (Saccharomyces cerevisiae) (UniProt P53725).
In data set [4] the target is RNA polymerase II CTD pSer2 peptide CTD (Saccharomyces cerevisiae) (UniProt P04050).
Data set [5] addresses RNA polymerase II CTD pSer2/7 peptide CTD (Saccharomyces cerevisiae) (UniProt P04050).
For data set [6], the target named is RNA polymerase II CTD pThr4 peptide CTD (Saccharomyces cerevisiae) (UniProt P04050).

The term Kd denotes the free concentration of one partner at which half of the binding sites on the other are occupied at equilibrium, for simple one-to-one binding. As for Nrd1 CID (from UniProt P53617), the Kd is 16 µM in data set [1], 1750 nM in data set [2] and 13.6 µM in data set [3].

Regarding Pcf11 CID (from UniProt P39081), the Kd in data set [4] was 115 µM.

For the substance Rtt103 CID (from UniProt Q05543), the Kd in data set [5] was 1600 nM; in data set [6] it was 6 µM.
